Results published in article PMC10746542 (Nature chemical biology, 2023).
Values belong to the binder of their own block, whether it stands above or below them.

Assays:
VH27/T75I/A89V-Fc = experiment: BLI; biotinylated ENPP1-Fc antigen loaded on streptavidin biosensors, blocked with 5 uM biotin; binder in solution, 600 s association, 900 s dissociation; TBS, 0.02% TWEEN-20, 0.2% BSA, 200 uM zinc chloride, 2 mM calcium chloride, 75 mM sodium chloride; 1:1 monovalent binding model; details: both partners purified
VH27.2-Fc Y102A = experiment: as above; details: both partners purified
VH27.2-Fc W104F = experiment: as above; details: both partners purified
[1] = biological target: bi-paratopic VH27.2/VH31 inhibitor (tetravalent Fc); experiment: flow cytometry on cells; MDA-MB-231 cells stained with a titration of binder, 1 hr at 4°C in PBS with 3% BSA; ProtA-647 secondary; EC50 from median fluorescence intensity, sigmoidal 4PL fit; details: one partner purified

Kd (VH27/T75I/A89V-Fc): 0.7 nM | Kd (VH27.2-Fc Y102A): 111 nM | Kd (VH27.2-Fc W104F): 14.2 nM
B1: T256A ENPP1-Fc (human ENPP1 ectodomain, ΔSMB, T256A, C-terminal Fc fusion with AviTag, biotinylated) (Fc fusion)
chain: GEKSWVEEPCESINEPQCPAGFETPPTLLFSLDGFRAEYLHTWGGLLPVISKLKKCGTYTKNMRPVYPTKAFPNHYSIVTGLYPESHGIIDNKMYDPKMNASFSLKSKEKFNPEWYKGEPIWVTAKYQGLKSGTFFWPGSDVEINGIFPDIYKMYNGSVPFEERILAVLQWLQLPKDERPHFYTLYLEEPDSSGHSYGPVSSEVIKALQRVDGMVGMLMDGLKELNLHRCLNLILISDHGMEQGSCKKYIYLNKYLGDVKNIKVIYGPAARLRPSDVPDKYYSFNYEGIARNLSCREPNQHFKPYLKHFLPKRLHFAKSDRIEPLTFYLDPQWQLALNPSERKYCGSGFHGSDNVFSNMQALFVGYGPGFKHGIEADTFENIEVYNLMCDLLNLTPAPNNGTHGSLNHLLKNPVYTPKHPKEVHPLVQCPFTRNPRDNLGCSCNPSILPIEDFQTQFNLTVAEEKIIKHETLPYGRPRVLQKENTICLLSQHQFMSGYSQDILMPLWTSYTVDRNDSFSTEDFSNCLYQDFRIPLSPVHKCSFYKNNTKVSYGFLSPPQLNKNSSGIYSEALLTTNIVPMYQSFQVIWRYFHDTLLRKYAEERNGVNVVSGPVFDFDYDGRCDSLENLRQKRRVIRNQEILIPTHFFIVLTSCKDTSQTPLHCENLDTLAFILPHRTDNSESCVHGKHDSSWVEELLMLHRARITDVEHITGLSFYQQRKEPVSDILKLKTHLPTFSQED
modifications: biotin on the AviTag

binding result [1]: binds
B2: native ENPP1 on the cell membrane (natural protein, UniProt P22413 1-925, looked up)
chain: MERDGCAGGGSRGGEGGRAPREGPAGNGRDRGRSHAAEAPGDPQAAASLLAPMDVGEEPLEKAARARTAKDPNTYKVLSLVLSVCVLTTILGCIFGLKPSCAKEVKSCKGRCFERTFGNCRCDAACVELGNCCLDYQETCIEPEHIWTCNKFRCGEKRLTRSLCACSDDCKDKGDCCINYSSVCQGEKSWVEEPCESINEPQCPAGFETPPTLLFSLDGFRAEYLHTWGGLLPVISKLKKCGTYTKNMRPVYPTKTFPNHYSIVTGLYPESHGIIDNKMYDPKMNASFSLKSKEKFNPEWYKGEPIWVTAKYQGLKSGTFFWPGSDVEINGIFPDIYKMYNGSVPFEERILAVLQWLQLPKDERPHFYTLYLEEPDSSGHSYGPVSSEVIKALQRVDGMVGMLMDGLKELNLHRCLNLILISDHGMEQGSCKKYIYLNKYLGDVKNIKVIYGPAARLRPSDVPDKYYSFNYEGIARNLSCREPNQHFKPYLKHFLPKRLHFAKSDRIEPLTFYLDPQWQLALNPSERKYCGSGFHGSDNVFSNMQALFVGYGPGFKHGIEADTFENIEVYNLMCDLLNLTPAPNNGTHGSLNHLLKNPVYTPKHPKEVHPLVQCPFTRNPRDNLGCSCNPSILPIEDFQTQFNLTVAEEKIIKHETLPYGRPRVLQKENTICLLSQHQFMSGYSQDILMPLWTSYTVDRNDSFSTEDFSNCLYQDFRIPLSPVHKCSFYKNNTKVSYGFLSPPQLNKNSSGIYSEALLTTNIVPMYQSFQVIWRYFHDTLLRKYAEERNGVNVVSGPVFDFDYDGRCDSLENLRQKRRVIRNQEILIPTHFFIVLTSCKDTSQTPLHCENLDTLAFILPHRTDNSESCVHGKHDSSWVEELLMLHRARITDVEHITGLSFYQQRKEPVSDILKLKTHLPTFSQED
